Publication PMC3915059 (Archives of biochemistry and biophysics, 2013)

How the values were obtained:
[1] = target: T1, Δ^1-pyrroline-5-carboxylate dehydrogenase (MmP5CDH, ALDH4A1) (Mus musculus, UniProt Q8CHT0); assay: X-ray crystal structure; assay type: biochemical
T1 sequence (Q8CHT0 21-562): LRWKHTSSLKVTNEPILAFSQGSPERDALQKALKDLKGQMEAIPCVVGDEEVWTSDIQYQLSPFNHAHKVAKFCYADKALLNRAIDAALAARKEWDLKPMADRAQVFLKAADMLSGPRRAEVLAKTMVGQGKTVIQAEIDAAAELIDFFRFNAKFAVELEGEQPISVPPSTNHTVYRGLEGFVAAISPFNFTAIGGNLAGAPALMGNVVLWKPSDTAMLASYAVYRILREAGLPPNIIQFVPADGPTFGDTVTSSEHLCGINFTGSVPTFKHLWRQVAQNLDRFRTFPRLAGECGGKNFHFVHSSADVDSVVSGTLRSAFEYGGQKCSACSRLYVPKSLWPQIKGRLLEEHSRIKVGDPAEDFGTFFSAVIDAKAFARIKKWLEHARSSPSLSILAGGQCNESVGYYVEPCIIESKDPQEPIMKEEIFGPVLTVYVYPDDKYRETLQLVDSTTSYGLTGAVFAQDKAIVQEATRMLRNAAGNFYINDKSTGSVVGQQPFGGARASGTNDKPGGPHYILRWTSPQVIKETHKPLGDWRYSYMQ

[2] = target: T1, Δ^1-pyrroline-5-carboxylate dehydrogenase (MmP5CDH, ALDH4A1); assay: steady-state inhibition kinetics, NADH production at […] nm, competitive model; assay type: biochemical
purified protein = substrate: O=CCCC(=O)O; assay: purified protein; details: NAD+ aldehyde substrate site; 20.0 °C

Molecule: O=CC(=O)O [compound 4, glyoxylate]
- Ki [1]: 0.27 mM

Molecule: N[C@@H](CCC(=O)O)C(=O)O [L-glutamate]
- Ki [2]: 12 mM

B1: Δ^1-pyrroline-5-carboxylate dehydrogenase (MmP5CDH, ALDH4A1) (Mus musculus) (protein)
chain: LRWKHTSSLKVTNEPILAFSQGSPERDALQKALKDLKGQMEAIPCVVGDEEVWTSDIQYQLSPFNHAHKVAKFCYADKALLNRAIDAALAARKEWDLKPMADRAQVFLKAADMLSGPRRAEVLAKTMVGQGKTVIQAEIDAAAELIDFFRFNAKFAVELEGEQPISVPPSTNHTVYRGLEGFVAAISPFNFTAIGGNLAGAPALMGNVVLWKPSDTAMLASYAVYRILREAGLPPNIIQFVPADGPTFGDTVTSSEHLCGINFTGSVPTFKHLWRQVAQNLDRFRTFPRLAGECGGKNFHFVHSSADVDSVVSGTLRSAFEYGGQKCSACSRLYVPKSLWPQIKGRLLEEHSRIKVGDPAEDFGTFFSAVIDAKAFARIKKWLEHARSSPSLSILAGGQCNESVGYYVEPCIIESKDPQEPIMKEEIFGPVLTVYVYPDDKYRETLQLVDSTTSYGLTGAVFAQDKAIVQEATRMLRNAAGNFYINDKSTGSVVGQQPFGGARASGTNDKPGGPHYILRWTSPQVIKETHKPLGDWRYSYMQ
- Km (purified protein): 26 ± 2 µM
- kcat (purified protein): 0.16 s⁻¹
- kcat/Km (purified protein): 6200 M⁻¹ s⁻¹
